Assay results taken from patent US7927849B2, “Laccase enzyme and use thereof” (AB Enzymes OY, priority 2004, dated 2011).

Assays:
[1] = Stain removal with laccases, tea; details: 60 min, pH 6
Method: (§1) The TaLcc1 (RF5598) and Denilite II Base laccase preparations were tested for their ability to remove stains. The following artificially soiled test cloths were used: grass soiling (Art. 164, EMPA Testmaterialen, Germany), tea soiling (Art. 167, EMPA Testmaterialen, Germany). The fabric was cut in 5.8×5.8 cm swatches. Laccase treatments were performed in LP-2 Launder Ometer as follows. About 5 g of soiled fabrics were loaded into 1.2 liter containers containing 150 ml Mc Ilvaine's citrate phosphate buffer pH 6 and the containers were temperated. Enzymes with or without the mediator (methyl syringate, DeniLite II Assist, Novozymes) were dosed as laccase activity units (Example 7). Enzyme dosage was 200 nkat/g and mediator dosage 10 mg/g of the weight of fabric, except at 40° C. also dosages of 20 nkat/g and 2 mg/g were used. The Launder Ometer was run at 40, 50 or 60° C. and pH 6 for 60 min. After that the swatches were carefully rinsed under running water and in shake flasks containing warm water and dried in the air.
(§2) The stain removal effect was evaluated by measuring the colour as reflectance values using L*a*b* color space coordinates (Example 7). The colour of the swatches was measured before and after the laccase treatment.

[2] = Denim bleaching at different pH-values (Launder Ometer); details: 50° C.; for Increase of L* / L* after laccase treatment / b* after laccase treatment: 200 nkat/g, 30 min
Method: Lee Cooper jeans (Hamilton, 111-1060-55522-65, MASI Company Oy, Finland, former name M.A.S.I. jeans Oy) that were made of ring spun yarn in warp and open-end yarn in weft and were previously desized and treated with neutral ECOSTONE® cellulase were used as a test material. Laccase treatments were performed in LP-2 Launder Ometer as follows. About 10 g of denim swatches (15×14 cm) were loaded into 1.2 liter containers containing 200 ml Mc Ilvaine's citrate phosphate buffer pH 5, 6 or 7 and the containers were temperated. Enzyme with or without the mediator (methyl syringate, DeniLite II Assist, Novozymes) was added. Enzyme was dosed 200 nkat/g and the mediator 10 mg/g on the weight of fabric. […] The Launder Ometer was run at 50° C. for 30 min and after that the temperature in Launder was raised to 80° C. for 10 min. The swatches were rinsed carefully with warm water, dried half-dry in a tumbler and after that air dried.
The bleaching effect was evaluated by measuring the colour as reflectance values with the Minolta Spectrophotometer CM 1000 (Minolta Co.) using L*a*b* color space coordinates (illuminant D65/2°). The colour from both sides of the swatches was measured before and after the laccase treatment. Each measurement was the average of several, at least ten, measurements.

[3] = Specific activity on syringaldazine; assay type: biochemical; details: 25 mM MES buffer, pH 5.5
Method: (§3) Specific activities of the purified Thielavia laccase were determined towards different laccase substrates.

[4] = Stain removal with laccases, grass; details: 60 min, pH 6
Method: as §1, §2

[5] = Specific activity on guaiacol; assay type: biochemical; details: 25 mM MES buffer, pH 5.5
Method: as §3

[6] = 20 nkat/g, mediator 2 mg/g, 40° C.
[7] = 200 nkat/g, mediator 0 mg/g, 40° C.
[8] = 200 nkat/g, mediator 0 mg/g, 60° C.
[9] = 200 nkat/g, mediator 10 mg/g, 40° C.
[10] = 200 nkat/g, mediator 10 mg/g, 50° C.
[11] = 200 nkat/g, mediator 10 mg/g, 60° C.

B1: TaLcc1: Recombinant Thielavia arenaria ALKO4197 laccase 1 (SEQ ID NO: 12) produced in Trichoderma reesei strains RF5597/RF5598 (protein)
chain: MKSWAAAVALMVGILSPHAAAAPPANPVQRDMLQVLEARQSGPTCNTPSNRACWTNGFDINTDYEVSTPNTGRTVAYQLTLTEKENWIGPDGVLKNVVMLVNDKIIGPTIRANWGDNIEVTVINNLKTNGTSMHWHGLRQLGNVFNDGANGVTECPIPPKGGRKTYKFRATQYGTSWYHSHFSAQYGNGVVGTIQIDGPASLPYDIDLGVFPLMDYYYRSADELVHFTQSNGAPPSDNVLFNGTARHPETGAGQWYNVTLTPGKRHRLRIINTSTDNHFQVSLVGHNMTVIATDMVPVNAFTVSSLFLAVGQRYDVTIDANSPVGNYWFNVTFGDGLCGSSNNKFPAAIFRYQGAPATLPTDQGLPVPNHMCLDNLNLTPVVTRSAPVNNFVKRPSNTLGVTLDIGGTPLFVWKVNGSAINVDWGKPILDYVMSGNTSYPVSDNIVQVDAVDQWTYWLIENDPTNPIVSLPHPMHLHGHDFLVLGRSPDELPSAGVRHIFDPAKDLPRLKGNNPVRRDVTMLPAGGWLLLAFKTDNPGAWLFHCHIAWHVSGGLSVDFLERPNDLRTQLNSNAKRADRDDFNRVCREWNAYWPTNPFPKIDSGLRHRFVEESEWMVR
modifications: Thielavia arenaria ALKO4197; (1)..(617) Deduced amino acid sequence of Thielavia arenaria ALKO4197 laccase 1 (Ta Lcc1)
- Tea L* [1, 6]: 77.17
- Tea a* [1, 6]: 4.65
- Tea b* [1, 6]: 24.40
- Tea L* [1, 7]: 75.99
- Tea a* [1, 7]: 5.59
- Tea b* [1, 7]: 23.54
- Tea L* [1, 8]: 76.98
- Tea a* [1, 8]: 4.98
- Tea b* [1, 8]: 21.20
- Tea L* [1, 9]: 78.77
- Tea a* [1, 9]: 3.93
- Tea b* [1, 9]: 24.97
- Tea L* [1, 10]: 79.52
- Tea a* [1, 10]: 3.45
- Tea b* [1, 10]: 23.74
- Tea L* [1, 11]: 81.69
- Tea a* [1, 11]: 2.91
- Tea b* [1, 11]: 22.29
- Increase of L* ([2]; mediator 0 mg/g, pH 5): 0.14
- L* after laccase treatment ([2]; mediator 0 mg/g, pH 5): 28.22
- b* after laccase treatment ([2]; mediator 0 mg/g, pH 5): −18.35
- Increase of L* ([2]; mediator 0 mg/g, pH 6): 0.82
- L* after laccase treatment ([2]; mediator 0 mg/g, pH 6): 29.58
- b* after laccase treatment ([2]; mediator 0 mg/g, pH 6): −18.38
- Increase of L* ([2]; mediator 0 mg/g, pH 7): 0.37
- L* after laccase treatment ([2]; mediator 0 mg/g, pH 7): 27.80
- b* after laccase treatment ([2]; mediator 0 mg/g, pH 7): −18.50
- Increase of L* ([2]; mediator 10 mg/g, pH 5): 13.52
- L* after laccase treatment ([2]; mediator 10 mg/g, pH 5): 42.04
- b* after laccase treatment ([2]; mediator 10 mg/g, pH 5): −14.78
- Increase of L* ([2]; mediator 10 mg/g, pH 6): 21.19
- L* after laccase treatment ([2]; mediator 10 mg/g, pH 6): 48.97
- b* after laccase treatment ([2]; mediator 10 mg/g, pH 6): −12.36
- Increase of L* ([2]; mediator 10 mg/g, pH 7): 16.92
- L* after laccase treatment ([2]; mediator 10 mg/g, pH 7): 44.71
- b* after laccase treatment ([2]; mediator 10 mg/g, pH 7): −14.43
- optimum pH in denim bleaching ([2]; pH 5 to 7 tested): 6
- Specific activity on syringaldazine [3]: 340 nkat/mg
- Grass L* [4, 6]: 80.16
- Grass a* [4, 6]: −0.73
- Grass b* [4, 6]: 16.20
- Grass L* [4, 7]: 80.25
- Grass a* [4, 7]: −4.22
- Grass b* [4, 7]: 17.41
- Grass L* [4, 8]: 79.38
- Grass a* [4, 8]: −4.19
- Grass b* [4, 8]: 17.77
- Grass L* [4, 9]: 80.34
- Grass a* [4, 9]: 0.47
- Grass b* [4, 9]: 16.51
- Grass L* [4, 10]: 80.60
- Grass a* [4, 10]: −0.18
- Grass b* [4, 10]: 17.65
- Grass L* [4, 11]: 80.6
- Grass a* [4, 11]: 0.02
- Grass b* [4, 11]: 18.71
- Specific activity on guaiacol [5]: 61 nkat/mg
